From patent US20180099046A1 (JIANGSU HENGRUI MEDICINE, published 2018)

T1: human sclerostin with a Flag tag (h-SOST-Flag) (human, UniProt Q9BQB4 24-213, biotinylated (biotin labeling kit) in the ELISA)
T1 construct: also called SOST-FLAG protein; not shown: C-terminal Flag tag
T1 sequence (looked up): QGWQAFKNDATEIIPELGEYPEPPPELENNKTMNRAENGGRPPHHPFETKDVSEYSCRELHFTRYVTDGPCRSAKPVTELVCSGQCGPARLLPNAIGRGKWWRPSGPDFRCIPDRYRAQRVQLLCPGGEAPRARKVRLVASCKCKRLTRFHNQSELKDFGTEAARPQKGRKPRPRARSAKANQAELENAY

T2: human sclerostin protein (R&D SYSTEM, 1406-ST/CF) (human, UniProt Q9BQB4 24-213, biotinylated in the LRP-6 blocking assay; not labelled in Biacore)
T2 construct: Bought protein; also called human SOST; SOST (R&D, Catalog #1406-ST-025)
T2 sequence (looked up): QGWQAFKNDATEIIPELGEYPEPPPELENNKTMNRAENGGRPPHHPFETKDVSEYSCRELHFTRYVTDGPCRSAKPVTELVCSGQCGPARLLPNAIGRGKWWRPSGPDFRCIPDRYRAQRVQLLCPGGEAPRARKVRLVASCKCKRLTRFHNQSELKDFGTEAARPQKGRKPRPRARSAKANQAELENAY


Key:
[1] = target: T1, human sclerostin with a Flag tag …; assay: binding ELISA, biotinylated h-SOST-Flag on streptavidin plate
Method: (§1) ELISA experiments were used to detect the binding properties of sclerostin antibodies. Sclerostin with a Flag tag (h-SOST-FLAG, encoded by SEQID NO: 2) was biotinylated with a biotin labeling kit (Dojido Chem, LK03), and immobilized onto a 96-well EIA/RIA plate via binding to streptavidin coated on it. After the antibody was added, the strength of the signal was used to determine the binding activity between the antibody and human sclerostin.
Streptavidin (Sigma, S4762-5MG) was diluted to a concentration of 5 μg/ml with PBS buffer at pH 7.4 (Sigma, P4417-100TAB), and added to a 96-well EIA/RIA plate (Corning,CLS3590-100EA) at a volume of 50 μl/well. Then, the plate was incubated in an incubator at 37° C. for 2 hours. The liquid was discarded, the plates were blocked with 200 μl/well of blocking solution containing 5% skim milk (Guangming skim milk) in PBS, and incubated in an incubator at 37° C. for 2.5 hours or overnight (16-18 hours) at 4° C. After blocking, the blocking solution was discarded and the plate was washed 5 times with PBST buffer (pH 7.4 PBS containing 0.05% tween-20). Biotinylated SOST-FLAG protein (R&D SYSTEM, 1505-LR-025) was diluted with sample dilution buffer (pH 7.4 PBS containing 1% BSA) to 0.5 μg/ml and was added to each well at 50 μl/well, then the plate was incubated in the incubator at 37° C. for 2 hours. After incubation, the reaction solution in the plate was discarded, and the plate was washed with PBST 6 times, and then 50 μl/well of gradient dilution antibody with sample dilution buffer was added, and the plate was incubated in a incubator at 37° C. for 2 hours. The plate was washed 6 times with PBST after incubation, added with 100 μl/well of HRP-labeled goat anti-mouse (Jackson Immuno Research, Cat No. 115-035-003) or HRP-labeled goat anti-human secondary antibody (Jackson Immuno Research, Cat No. 109-035-003) diluted in sample dilution, and incubated at 37° C. for 1 hour. After washing the plates with PBST 6 times, 50 μl/well of TMB substrate (KPL, Cat No. 52-00-03) was added to each well, and incubated at room temperature for 10-15 min, and the reaction was stopped by adding 50 μl 1M H₂SO₄ to each well. The OD value at a wavelength of 450 nm was read on a NOVOStar microplate reader, and then EC₅₀ values of the binding between the sclerostin antibody of the present invention and human sclerostin were calculated.

[2] = target: T2, human sclerostin protein (R&D SYSTEM, …); assay: SPR (Biacore X100), antibody captured by anti-human antibody, SOST as analyte, 1:1 Langmuir fit
From the text: (§2) The anti-human capture antibody was covalently linked to the CMS biosensor chip (Cat. #BR-1000-12, GE) of a Biacore instrument (Biacore X100, GE) according to the method described in the instructions of anti-human trapping kit (GE, Cat.# BR-1008-39) for affinity capturing an amount of a test antibody. Then, a gradient of concentrations of SOST antigen (human SOST, R&D SYSTEM, Cat.#1406-ST-025/CF, R&D; monkey SOST, cyno-SOST-Flag, obtained by purification, encoded by SEQ ID NO: 4 of Example 1; murine SOST, m-SOST-Flag, obtained by purification, encoded by SEQ ID NO: 3 of Example 1) were flowed through the surface of the biochip. The reaction signal was detected in real-time using a Biacore instrument (GE, BiacoreX100) to obtain the association and dissociation curves. After each cycle of dissociation was finished in the experiment, the biochip was washed and regenerated with regeneration solution in the anti-human capture kit.
(§3) The amino-coupled kit used in the experiments was purchased from GE (Cat. #BR-1000-50, GE), and the buffer was HBS-EP+10× buffer solution (Cat. #BR-1006-69, GE), and the buffer was diluted to 1× (pH 7.4) with D.I. Water.
(§4) The data obtained was fitted by GE BlAevaluation version 4.1 software using a 1:1 Langmuir model, and the affinity value was generated.

[3] = target: T3, cynomolgus monkey sclerostin with a Flag tag (cyno-SOST-Flag) (cynomolgus monkey); assay: as above
T3 construct: also called monkey SOST
From the text: as §2, §3, §4

[4] = target: T2, human sclerostin protein (R&D SYSTEM, …); assay: competition ELISA: antibody blocks binding of biotinylated human sclerostin to captured LRP-6-Fc
Method: (§5) In the method, goat anti-human Fc antibody was coated onto a 96-well EIA/RIA plate, and then LRP-6-Fc fusion protein was added for incubation. The biotinylated sclerostin protein and the anti-sclerostin antibody were co-incubated, and then added to the plate for incubation. After washing the plate, the binding amount between biotinylated sclerostin and LRP-6 was measured, and the IC₅₀ value of the blocking activity of the sclerostin antibody was calculated.
(§6) The goat anti-human Fc antibody was diluted to a concentration of 1 μg/ml with PBS buffer at pH 7.4 (Sigma, P4417-100TAB), and added to a 96-well EIA/RIA plate at a volume of 100 μl/well. Then, the plate was incubated at 37° C. for 2 hours. After discarding the liquid, the plates were blocked with 200 μl/well of blocking solution containing 5% skim milk (Guangming skim milk) in PBS, and incubated at 37° C. for 2.5 hours. After blocking, the blocking solution was discarded and the plate was washed 5 times with PBST buffer (pH 7.4 PBS containing 0.05% tween-20). LPR-6-Fc fusion protein (R&D SYSTEM, 1505-LRP-025) was diluted with sample dilution buffer (pH 7.4 PBS containing 1% BSA) to 1 μg/ml and 50 μl/well was added, then the plate was incubated at 37° C. for 2 hours. […]

[5] = target: T2, human sclerostin protein (R&D SYSTEM, …); assay: SPR (Biacore)
[6] = target: T3, cynomolgus monkey sclerostin with a …; assay: SPR (Biacore)
[7] = target: T3, cynomolgus monkey sclerostin with a …; assay: competition ELISA: antibody blocks binding of monkey sclerostin to captured LRP-6-Fc
Method: as §5, §6

[8] = target: T2, human sclerostin protein (R&D SYSTEM, …); assay: cell-based or functional assay
[9] = target: T1, human sclerostin with a Flag tag …; assay: binding ELISA, biotinylated h-SOST-Flag on streptavidin plate (Test Example 1)
Method: as §1
Streptavidin (Sigma, S4762-5MG) was diluted to a concentration of 5 μg/ml with PBS buffer at pH 7.4 (Sigma, P4417-100TAB), and added to a 96-well EIA/RIA plate (Corning,CLS3590-100EA) at a volume of 50 μl/well. Then, the plate was incubated in an incubator at 37° C. for 2 hours. The liquid was discarded, the plates were blocked with 200 μl/well of blocking solution containing 5% skim milk (Guangming skim milk) in PBS, and incubated in an incubator at 37° C. for 2.5 hours or overnight (16-18 hours) at 4° C. After blocking, the blocking solution was discarded and the plate was washed 5 times with PBST buffer (pH 7.4 PBS containing 0.05% tween-20). […] The OD value at a wavelength of 450 nm was read on a NOVOStar microplate reader, and then EC₅₀ values of the binding between the sclerostin antibody of the present invention and human sclerostin were calculated.

[10] = target: T2, human sclerostin protein (R&D SYSTEM, …); assay: competition ELISA: antibody blocks binding of biotinylated human sclerostin to captured LRP-6-Fc (Test Example 2)
Method: as §5, §6

Row | EC50 [1] [pM] | Kd [2] [pM] | Kd [3] [pM] | IC50 [4] [pM] | fold affinity against the positive molecule (Romosozumab) [5] [times] | fold affinity against the positive molecule (Romosozumab) [6] [times] | IC50 [7] [pM] | Cell activity EC50 (nM): alkaline phosphatase (ALP) activity in C2C12 cells given wnt3a and SOST [8] [nM] | EC50 [9] [pM] | IC50 [10] [pM] | Binder
1 | 630 | 64 | 30 | 23500 | ~10 | > 10 | 110000 | 84.7 |  |  | humanized antibody Ab-5 (antibody, human IgG4 S228P, kappa, V domains shown, also called humanized anti-SOST antibody) VH: EVQLVQSGAEVKKPGASVKVSCKASGYTFTDYNLDWLRQAPGEGLEWIGDIDPNDGDILYNQKFRDRVTMTTDTSTSTAYMELRSLRSDDTAVYYCARRWAYYFDYWGQGTTVTVSS VL: DIVMTQSPSSLSASVGDRVTITCKASQSVSNDVAWYQQKPGKSPKLLIYYTSNRFTGVPDRFSGSGSGTDFTLTISSLQPEDFATYFCQQDYSSPVTFGGGTKVEIKR
2 | 400 |  |  |  |  |  |  |  |  |  | humanized antibody Ab-9 (antibody, human IgG4 S228P, kappa, V domains shown) VH: EVQLVQSGAEVKKPGASVKVSCKASGYTFTDYNLDWLRQAPGEGLEWIGDIDPNNGDILYNQKFRDRVTMTTDTSTSTAYMELRSLRSDDTAVYYCARRWAYYFDYWGQGTTVTVSS VL: NIVMTQSPSSLSASVGDRVTITCKASQSVSNDVAWYQQKPGKSPKLLIYYTSNRFTGVPDRFSGSGSGTDFTLTISSLQPEDFATYFCQQDYSSPVTFGGGTKVEIKR
3 | 540 |  |  |  |  |  |  |  |  |  | humanized antibody Ab-10 (antibody, human IgG1, kappa, V domains shown) VH: EVQLVQSGAEVKKPGASVKVSCKASGYTFTDYNLDWVRQAPGQGLEWMGDIDPNNGDILYNQKFRDRVTMTTDTSTSTAYMELRSLRSDDTAVYYCARRWAYYFDYWGQGTTVTVSS VL: DIQMTQSPSSLSASVGDRVTITCKASQSVSNDVAWYQQKPGKAPKLLIYYTSNRFTGVPSRFSGSGSGTDFTLTISSLQPEDFATYYCQQDYSSPVTFGGGTKVEIKR
4 | 701 |  |  |  |  |  |  |  | 701 | 9910 | murine anti-human sclerostin monoclonal antibody Ab-1 (antibody, V domains shown, Mouse hybridoma antibody; also called parental antibody; murine antibody) VH: EVQLQQSGPELVKPGTSVKIPCQTSGYTFTDYNLDWLKQRPGESLEWIGDIDPNNGDILYNQKFRDKATLTVDTSSNTAYLELRSLTSEDTAVYYCARRWAYYFDYWGQGTTLTISS VL: NIVMTQTPKLLFVSAGDRITITCKASQSVSNDVAWYQQKPGQSPKLLIYYTSNRFTGVPDRFTGSGYGTDFTLTINTVQAEDLAVYFCQQDYSSPVTFGAGTKLELK
5 |  | 670 | 520 | 27900 |  |  | 46800 | 71.6 |  |  | Romosozumab (antibody, V domains shown) VH: EVQLVQSGAEVKKPGASVKVSCKASGYTFTDYNMHWVRQAPGQGLEWMGEINPNSGGAGYNQKFKGRVTMTTDTSTSTAYMELRSLRSDDTAVYYCARLGYDDIYDDWYFDVWGQGTTVTVSS VL: DIQMTQSPSSLSASVGDRVTITCRASQDISNYLNWYQQKPGKAPKLLIYYTSRLLSGVPSRFSGSGSGTDFTLTISSLQPEDFATYYCQQGDTLPYTFGGGTKVEIK
